Residue numbers refer to the chain shown, from its start. Each block holds one binder with its values, some of them ahead of it.
Key:
human IL-2Rβ [1] = biological target: T1, human IL-2Rβ (human, UniProt P14784 27-240, limits assumed); assay: SPR off-rate ranking of P.E., human IL-2Rβ immobilized
T1 construct: Recombinant human IL-2Rβ protein, coated on ELISA plates or immobilized on a CM5 chip; also called hu IL-2R; interleukin 2 receptor β-chain
T1 sequence: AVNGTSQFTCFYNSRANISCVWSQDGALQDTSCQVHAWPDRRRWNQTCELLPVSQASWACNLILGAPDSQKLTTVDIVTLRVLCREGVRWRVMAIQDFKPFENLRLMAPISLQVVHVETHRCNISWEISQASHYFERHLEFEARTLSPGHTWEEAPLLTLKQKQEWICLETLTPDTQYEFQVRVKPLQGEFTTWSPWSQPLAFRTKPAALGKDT
Procedure: SPR was performed to determine dissociation rates using Biacore 3000 instrument (GE Healthcare). Briefly, human and mouse IL-2R proteins were immobilized on carboxylmethyl dextran sensor chip (CM5) at approximately 2500 RUs using amine coupling in acetate buffer (GE Healthcare). The VHH-containing P.E. were loaded with a flow rate of 30 uL/min and the off-rates were measured over a 120s period.

human IL-2Rβ [2] = biological target: T1, human IL-2Rβ; assay: P.E. binding ELISA, human IL-2Rβ coated
Procedure: In a binding ELISA, human or mouse IL-2Rα, IL-2Rβ and IL-2Rγ proteins were coated directly on maxisorp microtiter plates overnight at 4° C. Free binding sites were blocked using 4% Marvel in PBS for 1 hour. Next, 1:5 dilution of P.E. in 1% Marvel/PBS were added to wells and incubated for 1 hour. […] Binding specificity was determined based on O.D. at 450 nm values compared to negative controls.

B2: FJ1427_P035MP06D05 (VHH)
VHH: QVQLVESGGGLVQAGGSLRLSCAVSGDVFVRYTMAWFRQAPGKEREFVASVTDSGRTTEYVDSVKGRFTVSRDNAKNTVYLQMNSLKPEDTAVYYCAANTDYFQIRSLRANTWGQGTQVTVSS
notes: Soluble VHH in periplasmic extract (P.E.); also called Clone nr
koff (human IL-2Rβ [1]): 0.000483 s⁻¹
OD450 nm (P.E. binding ELISA) (human IL-2Rβ [2]): 0.304 OD450 nm

B4: FJ1427 P035MP06G09 (VHH)
VHH: B2 VHH with A14P, V24A, E59D, S85N, R106K, R109D, A110R
notes: Soluble VHH in periplasmic extract (P.E.); also called Clone nr; 551
koff (human IL-2Rβ [1]): 0.000726 s⁻¹
OD450 nm (P.E. binding ELISA) (human IL-2Rβ [2]): 0.202 OD450 nm

B5: FJ1427_P035MP06G10 (VHH)
VHH: B2 VHH with V24A, V79A, S85N, R109N, A110L
notes: as for B2
koff (human IL-2Rβ [1]): 0.000261 s⁻¹
OD450 nm (P.E. binding ELISA) (human IL-2Rβ [2]): 1 OD450 nm

B10: FJ1427 P035MP06E03 (VHH)
VHH: B2 VHH with Q1E, V24A, E59D, S85N, R106K, R109D, A110R, S123P
notes: as for B2
koff (human IL-2Rβ [1]): 0.000745 s⁻¹
OD450 nm (P.E. binding ELISA) (human IL-2Rβ [2]): 0.57 OD450 nm

B11: FJ1427_P035MP06H08 (VHH)
VHH: B2 VHH with V24A, V79A, S85N, V93I, R109D, A110L
notes: as for B2
koff (human IL-2Rβ [1]): 0.000349 s⁻¹
OD450 nm (P.E. binding ELISA) (human IL-2Rβ [2]): 0.313 OD450 nm

B12: FJ1427_P035MP06F08 (VHH)
VHH: B2 VHH with V24A, V79A, S85N, R109N, A110L
notes: Soluble VHH in periplasmic extract (P.E.); also called Clone nr; 542
koff (human IL-2Rβ [1]): 0.000274 s⁻¹
OD450 nm (P.E. binding ELISA) (human IL-2Rβ [2]): 0.343 OD450 nm

B13: FJ1427_P035MP06D07 (VHH)
VHH: B2 VHH with V24A, V79A, S85N, V93I, R109D, A110L
notes: Soluble VHH in periplasmic extract (P.E.); also called Clone nr; 532
koff (human IL-2Rβ [1]): 0.000346 s⁻¹
OD450 nm (P.E. binding ELISA) (human IL-2Rβ [2]): 0.957 OD450 nm

B17: FJ1427_P035MP06C08 (VHH)
VHH: B2 VHH with V24A, V79A, S85N, V93I, R109D, A110L
notes: as for B2
koff (human IL-2Rβ [1]): 0.000335 s⁻¹
OD450 nm (P.E. binding ELISA) (human IL-2Rβ [2]): 0.297 OD450 nm

B18: FJ1427_P035MP06G03 (VHH)
VHH: B2 VHH with A23V, S50V, S85N, L108V, R109D, A110N, T112A
notes: Soluble VHH in periplasmic extract (P.E.); also called Clone nr; 503
koff (human IL-2Rβ [1]): 0.000586 s⁻¹
OD450 nm (P.E. binding ELISA) (human IL-2Rβ [2]): 0.267 OD450 nm

B20: FJ1427_P035MP06B07 (VHH)
VHH: B2 VHH with Q1E, V79A, S85N, R109D, A110L
notes: Soluble VHH in periplasmic extract (P.E.); also called Clone nr; 530
koff (human IL-2Rβ [1]): 0.000285 s⁻¹
OD450 nm (P.E. binding ELISA) (human IL-2Rβ [2]): 1.01 OD450 nm

B21: FJ1427_P035MP06D06 (VHH)
VHH: B2 VHH with Q1E, V79A, S85N, R109D, A110L
notes: as for B2
koff (human IL-2Rβ [1]): 0.00029 s⁻¹
OD450 nm (P.E. binding ELISA) (human IL-2Rβ [2]): 0.289 OD450 nm

B22: FJ1427_P035MP06F09 (VHH)
VHH: QVQLVESGGGLVQAGGSLTLSCAASGRAFSNYPVGWFRQAPGKEREFVAAITWLSGSTLYADSVEGRFTISRDNAKNTVYLLMSSLKPEDTALYFCAAALKTITRGQNDYSYWGQGTQVTVSS
notes: Soluble VHH in periplasmic extract (P.E.); also called Clone nr; 550
koff (human IL-2Rβ [1]): 0.000147 s⁻¹
OD450 nm (P.E. binding ELISA) (human IL-2Rβ [2]): 0.564 OD450 nm

Other lines, results leading:

koff (human IL-2Rβ [1]): 0.000871 s⁻¹
OD450 nm (P.E. binding ELISA) (human IL-2Rβ [2]): 0.617 OD450 nm
B1: FJ1427_P035MP06B05 (VHH)
VHH: B2 VHH with V24A, E59D, S85N, R109E, A110F
notes: as for B2

koff (human IL-2Rβ [1]): 0.00037 s⁻¹
OD450 nm (P.E. binding ELISA) (human IL-2Rβ [2]): 0.278 OD450 nm
B3: FJ1427_P035MP06F02 (VHH)
VHH: B2 VHH with V5Q, V24A, E59D, S85A, R106K, R109D, A110L
notes: as for B2

koff (human IL-2Rβ [1]): 0.00084 s⁻¹
OD450 nm (P.E. binding ELISA) (human IL-2Rβ [2]): 0.187 OD450 nm
B6: FJ1427_P035MP06C04 (VHH)
VHH: B2 VHH with V5Q, V24A, E59D, S85N, R109E, A110F
notes: as for B2

koff (human IL-2Rβ [1]): 0.000241 s⁻¹
OD450 nm (P.E. binding ELISA) (human IL-2Rβ [2]): 1.45 OD450 nm
B7: FJ1427_P035MP06E06 (VHH)
VHH: B2 VHH with Q1E, S21F, N77D, V79A, S85N, R109D, A110L
notes: Soluble VHH in periplasmic extract (P.E.); also called Clone nr; 525

koff (human IL-2Rβ [1]): 0.000882 s⁻¹
OD450 nm (P.E. binding ELISA) (human IL-2Rβ [2]): 0.148 OD450 nm
B8: FJ1427_P035MP06A03 (VHH)
VHH: B2 VHH with Q1E, V24A, E59D, S85N, R109E, A110F
notes: as for B2

koff (human IL-2Rβ [1]): 0.000641 s⁻¹
OD450 nm (P.E. binding ELISA) (human IL-2Rβ [2]): 0.213 OD450 nm
B9: FJ1427_P035MP06G04 (VHH)
VHH: B2 VHH with V5Q, A23V, S50V, S85N, L108V, R109D, A110N, T112A
notes: as for B2

koff (human IL-2Rβ [1]): 0.000245 s⁻¹
OD450 nm (P.E. binding ELISA) (human IL-2Rβ [2]): 1.02 OD450 nm
B14: FJ1427_P035MP06H04 (VHH)
VHH: B2 VHH with Q1E, V79A, S85N, R109D, A110L
notes: as for B2

koff (human IL-2Rβ [1]): 0.000698 s⁻¹
OD450 nm (P.E. binding ELISA) (human IL-2Rβ [2]): 0.255 OD450 nm
B15: FJ1427_P035MP06C06 (VHH)
VHH: B2 VHH with V5Q, A23V, S50V, S85N, L108V, R109D, A110N, T112A
notes: Soluble VHH in periplasmic extract (P.E.); also called Clone nr; 523

koff (human IL-2Rβ [1]): 0.00225 s⁻¹
OD450 nm (P.E. binding ELISA) (human IL-2Rβ [2]): 0.329 OD450 nm
B16: FJ1427_P035MP06B09 (VHH)
VHH: B2 VHH with F29L, V79A, S85N, R109D, A110L
notes: Soluble VHH in periplasmic extract (P.E.); also called Clone nr; 546

koff (human IL-2Rβ [1]): 0.000267 s⁻¹
OD450 nm (P.E. binding ELISA) (human IL-2Rβ [2]): 0.359 OD450 nm
B19: FJ1427_P035MP06E08 (VHH)
VHH: B2 VHH with Q1E, V79A, S85N, R109D, A110L
notes: as for B2

Reference: US20240409645A1 (DUALYX, published 2024)
